{"source": "paper PMC10398351", "about": "“Structural and molecular insight into antibody recognition of dynamic neoepitopes in membrane tethered MUC1 of pancreatic cancer cells and secreted exosomes” (RSC Chemical Biology, 2023)", "key": {"MUC1-ST (4)": {"target": "MUC1-ST (4)", "assay": "SPR; Biacore 2000; MUC1 TRD models 2-4 immobilised on a CM5 chip by maleimide coupling through a C-terminal cysteine; SN-131 Fab injected; bivalent binding model"}, "MUC1 TRD-Tn (3)": {"target": "MUC1 TRD-Tn (3)", "assay": "SPR; Biacore 2000; MUC1 TRD models 2-4 immobilised on a CM5 chip by maleimide coupling through a C-terminal cysteine; SN-131 Fab injected; bivalent binding model"}}}
{"binder": "SN-131 Fab (Fab, V domains shown) VH: QVQLQQSGAELARPGASVKLSCKASGYTFTNYGLSWVKQRTGQGLEWIGENHPGSGIIYHNEKFRGKATLTADKSSSTAYVQLSSLTSEDSAVYFCARSSGTRGFAYWGQGTLVTVSA VL: DVLMTQTPLSLPVSLGDQASISCRSSQSIVHSNGNTYLEWYLQKPGQSPKLLIYKVSNRFSGVPDRFSGSGSGTDFTLKISRVEAEDLGVYYCFQGSHGPWTFGGGTKLEIK", "values": [{"measurement": "Kd", "setting": "MUC1-ST (4)", "value": 1.58, "unit": "nM"}, {"measurement": "Kd", "setting": "MUC1 TRD-Tn (3)", "value": 3.78, "unit": "nM"}]}
